Reference: US20240116985A1, “STAPLED PEPTIDES AND METHODS THEREOF” (priority 2020, published 2024)
Starred links: 1 amine or outer side, 2 acyl side, 3 side chain; linkers in the order of their positions; H or OH if unused. Positions of bridges follow the written chain, without caps; N, C: chain ends. Non-standard residues stand in square brackets, D forms with d. Primed or numbered codes have the meaning given here. PyrS2″ = (S)-3-amino-1-((pent-4-en-1-yloxy)carbonyl)pyrrolidine-3-carboxylic acid (stapling residue), C=CCCCOC(=O)N1CC[C@@](N[*:1])(C(=O)[*:2])C1; B5(24) = 2-amino-2-(pent-4-en-1-yl)hept-6-enoic acid, 2,2-bis(4-pentenyl)glycine (stitching residue), C=CCCCC(CCCC=C)(N[*:1])C(=O)[*:2]; B5(4) = 2,2-bis(4-pentenyl)glycine = 2-amino-2-(pent-4-en-1-yl)hept-6-enoic acid (stitching residue), C=CCCCC(CCCC=C)(N[*:1])C(=O)[*:2]; B5(5) = 2,2-bis(4-pentenyl)glycine, 2-amino-2-(pent-4-en-1-yl)hept-6-enoic acid (stitching residue), C=CCCCC(CCCC=C)(N[*:1])C(=O)[*:2]; B5(31) = 2-amino-2-(pent-4-en-1-yl)hept-6-enoic acid (bis-pentenylglycine, stitching residue), C=CCCCC(CCCC=C)(N[*:1])C(=O)[*:2]; B5(3) = 2,2-bis(4-pentenyl)glycine (stitching residue), C=CCCCC(CCCC=C)(N[*:1])C(=O)[*:2]; Phe(3-CF3) = N[C@@H](Cc1cccc(C(F)(F)F)c1)C(=O)O; Phe(4-CF3) = N[C@@H](Cc1ccc(C(F)(F)F)cc1)C(=O)O; Phe(3-OMe) = COc1cccc(C[C@H](N)C(=O)O)c1; Phe(2-Cl) = N[C@@H](Cc1ccccc1Cl)C(=O)O; 1Nal = N[C@@H](Cc1cccc2ccccc12)C(=O)O; 2Nal = N[C@@H](Cc1ccc2ccccc2c1)C(=O)O; Phe(2-F) = N[C@@H](Cc1ccccc1F)C(=O)O; Bta = N[C@@H](Cc1csc2ccccc12)C(=O)O; Lys(iPr) = CC(C)NCCCC[C@H](N)C(=O)O; αAllylPro = C=CC[C@@]1(C(=O)O)CCCN1; tBuAla = CC(C)(C)C[C@H](N)C(=O)O; 3Thi = N[C@@H](Cc1ccsc1)C(=O)O; Cha = N[C@@H](CC1CCCCC1)C(=O)O; hSer = N[C@@H](CCO)C(=O)O; Aib = CC(C)(N)C(=O)O

How the values were obtained:
[1] = biological target: full-length beta-Catenin (Uniprot ID P35222) (Homo sapiens (Human)) (UniProt P35222); experiment: fluorescence polarization competition; 10 nM full-length beta-catenin + 10 nM 5FAM-TCF4(10-53) probe; peptide titrated 10 uM to 5 nM
Target sequence in this assay (P35222 2-781 limits assumed): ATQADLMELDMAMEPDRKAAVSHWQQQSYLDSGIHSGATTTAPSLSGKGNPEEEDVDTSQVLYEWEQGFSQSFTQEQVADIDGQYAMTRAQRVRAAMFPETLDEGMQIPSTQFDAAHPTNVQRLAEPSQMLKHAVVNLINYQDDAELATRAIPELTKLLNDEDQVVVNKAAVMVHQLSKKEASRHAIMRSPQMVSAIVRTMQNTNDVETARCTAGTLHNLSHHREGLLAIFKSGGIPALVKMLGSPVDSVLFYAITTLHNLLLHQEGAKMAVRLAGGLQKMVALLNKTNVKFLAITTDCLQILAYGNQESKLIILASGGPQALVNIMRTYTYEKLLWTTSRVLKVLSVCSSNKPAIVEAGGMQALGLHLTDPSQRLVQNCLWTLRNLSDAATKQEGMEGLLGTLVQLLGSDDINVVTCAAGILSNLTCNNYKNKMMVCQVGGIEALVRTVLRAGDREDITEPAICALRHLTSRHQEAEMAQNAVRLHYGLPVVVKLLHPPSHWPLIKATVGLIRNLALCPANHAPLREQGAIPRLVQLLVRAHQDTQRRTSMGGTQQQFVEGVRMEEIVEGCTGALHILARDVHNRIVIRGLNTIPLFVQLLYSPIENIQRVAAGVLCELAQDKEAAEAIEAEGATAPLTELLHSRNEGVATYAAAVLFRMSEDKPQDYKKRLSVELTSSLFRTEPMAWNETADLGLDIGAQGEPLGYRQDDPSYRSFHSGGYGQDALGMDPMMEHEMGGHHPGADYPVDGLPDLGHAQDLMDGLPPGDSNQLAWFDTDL

[2] = biological target: full-length beta-Catenin (Uniprot ID P35222) (Homo sapiens (Human)) (UniProt P35222); experiment: fluorescence polarization competition; 10 nM full-length beta-catenin + 10 nM 5FAM-TCF4 10-53 as competitor probe
Target sequence in this assay (P35222 2-781 limits assumed): as above

[3] = biological target: full-length beta-Catenin (Uniprot ID P35222) (Homo sapiens (Human)) (UniProt P35222); experiment: fluorescence polarization competition; full-length beta-catenin, competitor 5FAM-TCF4 10-53
Target sequence in this assay (P35222 whole entry): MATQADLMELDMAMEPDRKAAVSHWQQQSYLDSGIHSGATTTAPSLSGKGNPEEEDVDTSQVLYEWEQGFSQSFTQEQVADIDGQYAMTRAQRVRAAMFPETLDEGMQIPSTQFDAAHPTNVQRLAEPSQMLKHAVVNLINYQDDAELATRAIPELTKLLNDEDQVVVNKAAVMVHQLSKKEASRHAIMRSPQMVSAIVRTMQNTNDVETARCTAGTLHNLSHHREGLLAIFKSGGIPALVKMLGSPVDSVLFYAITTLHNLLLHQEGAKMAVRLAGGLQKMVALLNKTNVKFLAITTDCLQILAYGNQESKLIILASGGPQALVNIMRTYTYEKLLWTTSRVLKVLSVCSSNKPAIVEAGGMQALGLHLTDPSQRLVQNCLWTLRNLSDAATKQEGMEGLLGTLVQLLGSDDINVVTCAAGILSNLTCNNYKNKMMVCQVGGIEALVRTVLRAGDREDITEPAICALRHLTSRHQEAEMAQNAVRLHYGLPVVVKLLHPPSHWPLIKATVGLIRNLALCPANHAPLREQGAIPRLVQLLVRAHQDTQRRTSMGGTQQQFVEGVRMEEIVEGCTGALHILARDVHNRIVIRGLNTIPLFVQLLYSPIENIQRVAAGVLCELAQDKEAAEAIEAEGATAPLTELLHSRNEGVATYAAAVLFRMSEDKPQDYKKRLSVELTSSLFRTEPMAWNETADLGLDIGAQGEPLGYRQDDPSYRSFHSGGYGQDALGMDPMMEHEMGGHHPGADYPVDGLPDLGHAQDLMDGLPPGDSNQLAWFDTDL

[4] = biological target: full-length beta-Catenin (Uniprot ID P35222) (Homo sapiens (Human)) (UniProt P35222); experiment: fluorescence polarization competition, full-length beta-catenin, competitor 5FAM-TCF4 10-53
Target sequence in this assay (P35222 whole entry): as above

[5] = biological target: full-length beta-Catenin (Uniprot ID P35222) (Homo sapiens (Human)) (UniProt P35222); experiment: fluorescence polarization competition, 5FAM-TCF4 10-53 probe on full-length beta-catenin
Target sequence in this assay (P35222 2-781 limits assumed): as the sequence (P35222 2-781 limits assumed) above

IC50 [1] [nM] | IC50 [4] [nM] | EC50 [5] [nM] | Binder | also measured
63 |  |  | Ac-[αAllylPro]N[Cha][B5(3)]DQ[Lys(iPr)]AFL[PyrS2″]F[Bta]K-NH2 (staple 1-4, 4-11) [I-2350] | 
 |  |  | Ac-[αAllylPro]D[tBuAla][B5(5)]DNAAFT[PyrS2″][Phe(2-F)][Bta]S-NH2 (staple 1-4, 4-11) [I-1024] | EC50 [2]: 43 nM; IC50 [3]: 43 nM
 | 55 | 55 | Ac-[αAllylPro]D[2Nal][B5(4)]DDAAFL[PyrS2″][Phe(2-Cl)][Bta]S-NH2 (staple 1-4, 4-11) [I-1117] | 
 |  |  | Ac-[αAllylPro]D[tBuAla][B5(5)]DEAAFF[PyrS2″][Phe(2-Cl)][Bta][dT]-NH2 (staple 1-4, 4-11) [I-1038] | EC50 [2]: 101 nM; IC50 [3]: 101 nM
417 |  |  | Ac-[αAllylPro]N[Cha][B5(4)]DQ[hSer]AFL[PyrS2″]F[Bta]Q-NH2 (staple 1-4, 4-11; also: later eluting isomer composition (HPLC), configuration not given here) [I-2355] | 
100 |  |  | Ac-[αAllylPro]N[Cha][B5(3)]DQ[hSer]AFL[PyrS2″]F[Bta]Q-NH2 (staple 1-4, 4-11; also: earlier eluting isomer, configuration not given here) [I-2354] | 
 | 40 | 40 | Ac-[αAllylPro]D[1Nal][B5(4)]DDAAFL[PyrS2″][Phe(2-Cl)][Bta]S-NH2 (staple 1-4, 4-11) [I-1116] | 
 |  |  | Ac-[αAllylPro]F[tBuAla][B5(5)]DDAADN[PyrS2″][3Thi][Bta]Q-OH (staple 1-4, 4-11) [I-1027] | EC50 [2]: 1140 nM
179 |  |  | Ac-[αAllylPro]N[Cha][B5(31)]DH[Lys(iPr)]AFL[PyrS2″]F[Bta]Q-NH2 (staple 1-4, 4-11; also: staple isomer, earlier eluting HPLC peak) [I-2348] | 
1160 |  |  | Ac-[αAllylPro]N[Cha][B5(31)]DH[Lys(iPr)]AFL[PyrS2″]F[Bta]Q-NH2 (staple 1-4, 4-11) [I-2349] | 
63 |  |  | Ac-[αAllylPro]D[tBuAla][B5(3)]NT[Aib]AFN[PyrS2″][3Thi][Bta]Q-NH2 (staple 1-4, 4-11) [I-2338] | 
 |  |  | Ac-[αAllylPro]D[tBuAla][B5(5)]DEAAFL[PyrS2″][Phe(2-Cl)][Bta][dT]-NH2 (staple 1-4, 4-11) [I-1039] | EC50 [2]: 57 nM; IC50 [3]: 57 nM
586 |  |  | Ac-[αAllylPro]N[Cha][B5(31)]D[hSer][Lys(iPr)]AFL[PyrS2″]F[Bta]Q-NH2 (staple 1-4, 4-11; also: staple isomer, earlier eluting HPLC peak) [I-2344] | 
 | 24 | 24 | Ac-[αAllylPro]D[Cha][B5(4)]DDAA[Phe(3-OMe)]S[PyrS2″][Phe(2-Cl)][Bta]Q-NH2 (staple 1-4, 4-11) [I-1118] | 
 | 85 | 85 | Ac-[αAllylPro]D[Cha][B5(4)]DDAA[Phe(4-CF3)]S[PyrS2″][Phe(2-Cl)][Bta]Q-NH2 (staple 1-4, 4-11) [I-1120] | 
187 |  |  | Ac-[αAllylPro]N[Cha][B5(4)]DQ[Lys(iPr)]AFL[PyrS2″]F[Bta]H-NH2 (staple 1-4, 4-11) [I-2351] | 
2760 |  |  | Ac-[αAllylPro][hSer][Cha][B5(4)]DQ[Lys(iPr)]AFL[PyrS2″]F[Bta]Q-NH2 (staple 1-4, 4-11) [I-2353] | 
 | 26 | 26 | Ac-[αAllylPro]D[Cha][B5(4)]DDAA[Phe(3-CF3)]S[PyrS2″][Phe(2-Cl)][Bta]Q-NH2 (staple 1-4, 4-11) [I-1119] | 
 | 6 | 6 | Ac-[αAllylPro]D[tBuAla][B5(24)]DDAAFN[PyrS2″][Phe(2-Cl)][Bta][Lys(iPr)]-NH2 (staple 1-4, 4-11) [I-1130] | 
1270 |  |  | Ac-[αAllylPro]N[Cha][B5(31)]D[hSer][Lys(iPr)]AFL[PyrS2″]F[Bta]Q-NH2 (staple 1-4, 4-11) [I-2345] | 
 | 32 | 32 | Ac-[αAllylPro]D[Cha][B5(4)]DDAA[Phe(4-CF3)]S[PyrS2″]F[Bta]Q-NH2 (staple 1-4, 4-11) [I-1126] | 
 | 12 | 12 | Ac-[αAllylPro]D[Cha][B5(3)]DDAA[Phe(3-OMe)]S[PyrS2″]F[Bta]Q-NH2 (staple 1-4, 4-11) [I-1124] | 
211 |  |  | Ac-[αAllylPro]N[Cha][B5(4)]DQ[Lys(iPr)]AFL[PyrS2″]F[Bta]A-NH2 (staple 1-4, 4-11) [I-2352] | 
2820 |  |  | Ac-[αAllylPro]D[tBuAla][B5(31)]NTA[Aib]FN[PyrS2″][3Thi][Bta]Q-NH2 (staple 1-4, 4-11) [I-2339] | 
 | 16 | 16 | Ac-[αAllylPro]D[Cha][B5(3)]DDAA[Phe(3-CF3)]S[PyrS2″]F[Bta]Q-NH2 (staple 1-4, 4-11) [I-1125] | 
311 |  |  | Ac-[αAllylPro]D[tBuAla][B5(31)]NTAAFT[PyrS2″][3Thi][Bta]H-NH2 (staple 1-4, 4-11) [I-2337] | 
422 |  |  | Ac-[αAllylPro]N[Cha][B5(31)]DK[Lys(iPr)]AFL[PyrS2″]F[Bta]Q-NH2 (staple 1-4, 4-11; also: staple isomer, earlier eluting HPLC peak) [I-2346] | 
5630 |  |  | Ac-[αAllylPro]N[Cha][B5(31)]DK[Lys(iPr)]AFL[PyrS2″]F[Bta]Q-NH2 (staple 1-4, 4-11) [I-2347] | 
